Assay: Peracetic acid production by Thermotoga neapolitana perhydrolase, control by bicarbonate buffer concentration
Assay type: biochemical
Conditions: 100 mM triacetin
Experimental: A cell extract of an E. coli transformant expressing perhydrolase from Thermotoga neapolitana (KLP18/pSW196) was prepared by passing a suspension of cell paste (20 wt % wet cell weight) in 0.05 M potassium phosphate buffer (pH 7.0) containing dithiothreitol (1 mM) twice through a French press having a working pressure of 16,000 psi (˜110 MPa). The crude extract was then centrifuged at 20,000×g to remove cellular debris, producing a clarified cell extract that was assayed for total soluble protein (Bicinchoninic Acid Kit for Protein Determination, Sigma Aldrich catalog #BCA1-KT). The clarified extract was heated for 20 min at 75° C., followed immediately by cooling in an ice/water bath. The resulting mixture was centrifuged to remove precipitated protein, and the supernatant collected and assayed for total soluble protein as before. […] The supernatant was frozen in dry ice and stored at −80° C.
Reactions (10 mL total volume) containing triacetin, hydrogen peroxide and heat-treated, centrifuged cell extract supernatant (prepared as described above) were run at 25° C. using sodium bicarbonate buffer concentrations listed in Tables 7 and 8. A control reaction for each reaction condition was run to determine the concentration of peracetic acid produced by chemical perhydrolysis of triacetin by hydrogen peroxide in the absence of added extract protein. Determination of the concentration of peracetic acid in the reaction mixtures was performed according to the method described by Karst et al., supra. Aliquots (0.040 mL) of the reaction mixture were removed at predetermined times and mixed with 0.960 mL of 5 mM phosphoric acid in water; adjustment of the pH of the diluted sample to less than pH 4 immediately terminated the reaction. The resulting solution was filtered using an ULTRAFREE® MC-filter unit (30,000 Normal Molecular Weight Limit (NMWL), Millipore cat #UFC3LKT 00) by centrifugation for 2 min at 12,000 rpm. An aliquot (0.100 mL) of the resulting filtrate was transferred to L5-mL screw cap HPLC vial (Agilent Technologies, Palo Alto, Calif.; #5182-0715) containing 0.300 mL of deionized water, then 0.100 mL of 20 mM MTS (methyl-p-tolyl-sulfide) in acetonitrile was added, the vials capped, and the contents briefly mixed prior to a 10 min incubation at ca. 25° C. in the absence of light. To each vial was then added 0.400 mL of acetonitrile and 0.100 mL of a solution of triphenylphosphine (TPP, 40 mM) in acetonitrile, the vials re-capped, and the resulting solution mixed and incubated at ca. 25° C. for 30 min in the absence of light. To each vial was then added 0.100 mL of 10 mM N,N-diethyl-m-toluamide (DEET; HPLC external standard) and the resulting solution analyzed by HPLC as described below.
Supelco Discovery C8 column (10-cm×4.0-mm, 5 μm) (cat. #569422-U) w/precolumn Supelco Supelguard Discovery C8 (Sigma-Aldrich; cat #59590-U); 10 microliter injection volume; gradient method with CH3CN (Sigma-Aldrich; #270717) and deionized water at 1.0 mL/min and ambient temperature:
The peracetic acid concentrations produced in 1 min, 5 min and 30 min when using either 250 mM or 100 mM hydrogen peroxide are listed in Table 7 and Table 8, respectively.

B1: Thermotoga neapolitana perhydrolase: acetyl xylan esterase with perhydrolase activity from Thermotoga neapolitana (SEQ ID NO: 14), cell extract of E. coli KLP18/pSW196 (protein, listed as Thermotoga neapolitana)
chain: MAFFDMPLEELKKYRPERYEEKDFDEFWRETLKESEGFPLDPVFEKVDFHLKTVETYDVTFSGYRGQRIKGWLLVPKLAEEKLPCVVQYIGYNGGRGFPHDWLFWPSMGYICFVMDTRGQGSGWMKGDTPDYPEGPVDPQYPGFMTRGILDPGTYYYRRVFVDAVRAVEAAISFPRVDSRKVVVAGGSQGGGIALAVSALSNRVKALLCDVPFLCHFRRAVQLVDTHPYVEITNFLKTHRDKEEIVFRTLSYFDGVNFAARAKVPALFSVGLMDTICPPSTVFAAYNHYAGPKEIRIYPYNNHEGGGSFQAIEQVKFLKRLFEEG
PAA (ppm), 1 min (NaHCO3 0 mM, initial pH 5.0, 1 min, 100 mM H2O2, 50 μg/mL heated extract total protein): 0 ppm
PAA (ppm), 1 min (NaHCO3 0 mM, initial pH 5.0, 1 min, 250 mM H2O2, 50 μg/mL heated extract total protein): 161 ppm
PAA (ppm), 5 min (NaHCO3 0 mM, initial pH 5.0, 5 min, 100 mM H2O2, 50 μg/mL heated extract total protein): 29 ppm
PAA (ppm), 5 min (NaHCO3 0 mM, initial pH 5.0, 5 min, 250 mM H2O2, 50 μg/mL heated extract total protein): 152 ppm
PAA (ppm), 30 min (NaHCO3 0 mM, initial pH 5.0, 30 min, 100 mM H2O2, 50 μg/mL heated extract total protein): 11 ppm
PAA (ppm), 30 min (NaHCO3 0 mM, initial pH 5.0, 30 min, 250 mM H2O2, 50 μg/mL heated extract total protein): 180 ppm
PAA (ppm), 1 min (NaHCO3 1.0 mM, initial pH 6.0, 1 min, 100 mM H2O2, 50 μg/mL heated extract total protein): 167 ppm
PAA (ppm), 1 min (NaHCO3 1.0 mM, initial pH 6.0, 1 min, 250 mM H2O2, 50 μg/mL heated extract total protein): 511 ppm
PAA (ppm), 5 min (NaHCO3 1.0 mM, initial pH 6.0, 5 min, 100 mM H2O2, 50 μg/mL heated extract total protein): 152 ppm
PAA (ppm), 5 min (NaHCO3 1.0 mM, initial pH 6.0, 5 min, 250 mM H2O2, 50 μg/mL heated extract total protein): 610 ppm
PAA (ppm), 30 min (NaHCO3 1.0 mM, initial pH 6.0, 30 min, 100 mM H2O2, 50 μg/mL heated extract total protein): 176 ppm
PAA (ppm), 30 min (NaHCO3 1.0 mM, initial pH 6.0, 30 min, 250 mM H2O2, 50 μg/mL heated extract total protein): 608 ppm
PAA (ppm), 1 min (NaHCO3 2.5 mM, initial pH 6.5, 1 min, 100 mM H2O2, 50 μg/mL heated extract total protein): 291 ppm
PAA (ppm), 1 min (NaHCO3 2.5 mM, initial pH 6.5, 1 min, 250 mM H2O2, 50 μg/mL heated extract total protein): 718 ppm
PAA (ppm), 5 min (NaHCO3 2.5 mM, initial pH 6.5, 5 min, 100 mM H2O2, 50 μg/mL heated extract total protein): 510 ppm
PAA (ppm), 5 min (NaHCO3 2.5 mM, initial pH 6.5, 5 min, 250 mM H2O2, 50 μg/mL heated extract total protein): 1242 ppm
PAA (ppm), 30 min (NaHCO3 2.5 mM, initial pH 6.5, 30 min, 100 mM H2O2, 50 μg/mL heated extract total protein): 488 ppm
PAA (ppm), 30 min (NaHCO3 2.5 mM, initial pH 6.5, 30 min, 250 mM H2O2, 50 μg/mL heated extract total protein): 1179 ppm
PAA (ppm), 1 min (NaHCO3 5.0 mM, initial pH 6.5, 1 min, 100 mM H2O2, 50 μg/mL heated extract total protein): 377 ppm
PAA (ppm), 1 min (NaHCO3 5.0 mM, initial pH 6.5, 1 min, 250 mM H2O2, 50 μg/mL heated extract total protein): 866 ppm
PAA (ppm), 5 min (NaHCO3 5.0 mM, initial pH 6.5, 5 min, 100 mM H2O2, 50 μg/mL heated extract total protein): 955 ppm
PAA (ppm), 5 min (NaHCO3 5.0 mM, initial pH 6.5, 5 min, 250 mM H2O2, 50 μg/mL heated extract total protein): 1894 ppm
PAA (ppm), 30 min (NaHCO3 5.0 mM, initial pH 6.5, 30 min, 100 mM H2O2, 50 μg/mL heated extract total protein): 989 ppm
PAA (ppm), 30 min (NaHCO3 5.0 mM, initial pH 6.5, 30 min, 250 mM H2O2, 50 μg/mL heated extract total protein): 1931 ppm
PAA (ppm), 1 min (NaHCO3 10 mM, initial pH 7.0, 1 min, 250 mM H2O2, 50 μg/mL heated extract total protein): 1042 ppm
PAA (ppm), 5 min (NaHCO3 10 mM, initial pH 7.0, 5 min, 250 mM H2O2, 50 μg/mL heated extract total protein): 2334 ppm
PAA (ppm), 30 min (NaHCO3 10 mM, initial pH 7.0, 30 min, 250 mM H2O2, 50 μg/mL heated extract total protein): 2384 ppm
PAA (ppm), 1 min (NaHCO3 10 mM, initial pH 8.1, 1 min, 100 mM H2O2, 50 μg/mL heated extract total protein): 418 ppm
PAA (ppm), 5 min (NaHCO3 10 mM, initial pH 8.1, 5 min, 100 mM H2O2, 50 μg/mL heated extract total protein): 1035 ppm
PAA (ppm), 30 min (NaHCO3 10 mM, initial pH 8.1, 30 min, 100 mM H2O2, 50 μg/mL heated extract total protein): 1633 ppm
PAA (ppm), 1 min (NaHCO3 25 mM, initial pH 8.1, 1 min, 100 mM H2O2, 50 μg/mL heated extract total protein): 497 ppm
PAA (ppm), 1 min (NaHCO3 25 mM, initial pH 8.1, 1 min, 250 mM H2O2, 50 μg/mL heated extract total protein): 1037 ppm
PAA (ppm), 5 min (NaHCO3 25 mM, initial pH 8.1, 5 min, 100 mM H2O2, 50 μg/mL heated extract total protein): 1319 ppm
PAA (ppm), 5 min (NaHCO3 25 mM, initial pH 8.1, 5 min, 250 mM H2O2, 50 μg/mL heated extract total protein): 2655 ppm
PAA (ppm), 30 min (NaHCO3 25 mM, initial pH 8.1, 30 min, 100 mM H2O2, 50 μg/mL heated extract total protein): 2095 ppm
PAA (ppm), 30 min (NaHCO3 25 mM, initial pH 8.1, 30 min, 250 mM H2O2, 50 μg/mL heated extract total protein): 3503 ppm

Reference: US8389575B2, “Control of enzymatic peracid generation” (E.I. du Pont de Nemours and Company, priority 2008, dated 2013)
